System: established IBD
Assay: Established IBD in the hapten model in SJL mice
Format: in vivo, mouse
Description: SJL mice can be given TNBS by enema for the induction of colitis, and their body weights can be monitored every 3 days. When there has been a decrease in body mass by at least 15% (typically day 7), the animals can be given either four i.p. injections of 10 μg alkaline protease every 12 hours (Group 1) or administered alkaline protease in their drinking water at a concentration found above to decrease IBD parameters (Group 2). A control group can be challenged with TNBS, but would not receive protease (Group 3). Body weights can then be monitored daily, and at the end of one week, mice are euthanized and tissues taken for scoring the various histopathological and immunohistochemical parameters as known in the art.

B1: Alkaline Protease: Aspergillus oryzae alkaline protease (oryzin), SEQ ID NO: 2, purified from the protease powder of Example 1 (protein, listed as Aspergillus oryzae)
chain: MQSIKRTLLLLGAILPAVLGAPVQETRRAAEKLPGKYIVTFKPGIDEAKIQEHTTWATNIHQRSLERRGATGGDLPVGIERNYKINKFAAYAGSFDDATIEEIRKNEDVAYVEEDQIYYLDGLTTQKSAPWGLGSISHKGQQSTDYIYDTSAGEGTYAYVVDSGVNVDHEEFEGRASKAYNAAGGQHVDSIGHGTHVSGTIAGKTYGIAKKASILSVKVFQGESSSTSVILDGFNWAANDIVSKKRTSKAAINMSLGGGYSKAFNDAVENAFEQGVLSVVAAGNENSDAGQTSPASAPDAITVAAIQKSNNRASFSNFGKVVDVFAPGQDILSAWIGSSSATNTISGTSMATPHIVGLSLYLAALENLDGPAAVTKRIKELATKDWKDVKGSPNLLAYNGNA
For B1, the “Effect on established IBD” value was “can reverse and/or lessen established IBD”.
